B1: Cds1 (protein)
chain: MEEPEEATQATQEAPLHVSQNIAKQVVNNENVFMKLVMTRMLDGKTEVIPLTTDVHNGFWRFGRHKSCEVVLNGPRVSNFHFEIYQGHRNDSDESENVVFLHDHSSNGTFLNFERLAKNSRTILSNGDEIRIGLGVPKDEISFLCQVPVKHSRDSQKNMIKSENSHYEIIRTLGSGTFAVVKLAVEVNSGKWYAIKIINKRKILLTSSEKRATEMFQREIDILKSLHHPGVVQCHEIFENDDELFIVMEYVEGGDLMDFLIANGSIDEQDCKPLLKQLLETLLHLHKQGVTHRDIKPENILITNDFHLKISDFGLAKVIHGTGTFLETFCGTMGYLAPEVLKSKNVNLDGGYDDKVDIWSLGCVLYVMLTASIPFASSSQAKCIELISKGAYPIEPLLENEISEEGIDLINRMLEINPEKRISESEALQHPWFYTVSTHEHRTPPSSSEHEATEQLNSSS
Chain of GST:Weel^152 (chain, as listed by the source): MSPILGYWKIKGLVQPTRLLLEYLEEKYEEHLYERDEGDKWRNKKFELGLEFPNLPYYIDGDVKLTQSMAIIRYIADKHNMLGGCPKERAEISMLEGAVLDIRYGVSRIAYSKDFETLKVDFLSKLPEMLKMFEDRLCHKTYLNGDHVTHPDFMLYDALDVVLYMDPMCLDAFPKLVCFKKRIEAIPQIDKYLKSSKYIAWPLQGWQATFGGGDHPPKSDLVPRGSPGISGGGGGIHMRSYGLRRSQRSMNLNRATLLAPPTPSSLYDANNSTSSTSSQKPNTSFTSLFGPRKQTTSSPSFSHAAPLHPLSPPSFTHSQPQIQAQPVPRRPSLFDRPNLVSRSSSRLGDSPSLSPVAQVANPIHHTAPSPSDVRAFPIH
Chain of GST:Weel^70 (chain, as listed by the source): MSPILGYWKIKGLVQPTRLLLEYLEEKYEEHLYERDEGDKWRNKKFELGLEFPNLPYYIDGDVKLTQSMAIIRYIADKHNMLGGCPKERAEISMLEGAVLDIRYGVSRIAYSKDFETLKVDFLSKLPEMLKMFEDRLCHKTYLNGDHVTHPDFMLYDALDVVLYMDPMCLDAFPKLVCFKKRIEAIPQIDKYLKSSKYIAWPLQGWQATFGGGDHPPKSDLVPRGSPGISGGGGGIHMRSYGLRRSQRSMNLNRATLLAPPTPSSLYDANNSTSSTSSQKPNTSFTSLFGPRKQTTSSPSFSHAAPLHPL
With B1, the “phosphorylation by bead-associated kinase with [gamma-32P]ATP” value with GST:Weel^152 was “GST:Weel^152 is phosphorylated by this kinase and another that is active prior to HU treatment”. For the same protein, in the series with GST:Weel^70, the “in vitro phosphorylation, two-dimensional tryptic phosphopeptide map” value is reported as “Cds1 purified from fission yeast phosphorylated GST:Weel^70 in vitro, producing a two-dimensional tryptic phosphopeptide map that was identical to a map made from GST:Weel^70 phosphorylated by its associated kinase”.

For the origin of these results see patent publication US20030216563.
